In US20210371503A1 (UNIVERSITY OF COLOGNE, published 2021):
Like-named read-outs stand apart in the source and are kept apart here.

Key:
[1] = target: T1, receptor-binding domain (RBD) of the spike (S) protein of SARS-CoV-2 (SARS-CoV-2, UniProt P0DTC2 319-541); test: assay not stated; row Binding Affinity Spike RBD
T1 construct: also called soluble RBD

[2] = target: T1, receptor-binding domain (RBD) of the …
[3] = target: T1, receptor-binding domain (RBD) of the …; test: ELISA, coated RBD [cont'd]
[4] = target: S1 (truncated S1 subunit); test: ELISA, coated truncated S1 [cont'd]

B1: DZIF-10c (antibody, V domains shown)
VH: QVQLVESGGGVVQPGRSLRLSCAATGFTFRRYGMHWVRQAPGKGLEWVAGILFDGSNKYYVDSVKGRFTISRDSSRNTLYLQLNSLRREDTAVYYCAKGGDYEWELLESWGQGTLVTVSS
VL: DIQMTQSPSTVSASVGDRVTITCRASQSIDNWLAWYQEKPGKAPKVLIYKASSLESGVPSRFSGRGSGTEFTLTISSLQPGDFATYYCQHYHSFPLTFGGGTKVDIKR
notes: also called HbnC3t1p1_F4(-K); EX14870
Kd [1]: 2 nM

B2: MnC4t1p1_A11 (antibody, V domains shown)
VH: EVQLVESGGGLVQPGGSLRLSCAASGFTFSSYSMNWVRQAPGKGLEWVSYISSSSNTRYYTDSVMGRFTISRDNAKNSLFLQMNSLRAEDTAVYYCASSKGFCSGGSCSDYWGQGTLVTVSS
VL: EIVLTQSPGTLSLSPGERATLSCRASQSVSSSYLAWYQQKPGQAPRLLIYGVSSRATGIPDRFSGSGSGTDFTLTISRLEPEDFVVYYCHQYGSSPWTFGQGTKVEIK
Kd [2]: 2000 nM
EC50 [3]: < 100 µg/mL
EC50 [4]: < 100 µg/mL
